The assay concerns the target VvWRKY8-mVenus (Vitis vinifera). Nature of the assay: FRET or BRET; FRET with acceptor photobleaching; VvMYB14-mTRQ2 (donor) and VvWRKY8-mVenus (acceptor) from one pFRETtv-2in1-NN vector in agro-infiltrated tobacco leaves, 3 d after infiltration; bleaching with the 488-nm laser at 100% intensity, 15 frames. (In general: Bioluminescence resonance energy transfer reports proximity on the nanometre scale.)

In turn, VvMYB14-mTRQ2 (natural protein) returned an FRET efficiency of 38.5%.

Source of the values: article PMC6322584.
